The target in assay [1] is T1, E6AP AZUL (amino-terminal zinc-binding domain of ubiquitin E3a ligase), amino acids 24 to 87 (human, UniProt Q05086 24-87).
T1 chain: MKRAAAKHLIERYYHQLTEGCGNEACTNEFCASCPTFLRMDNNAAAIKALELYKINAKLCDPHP
Description: ITC; Y326 phosphorylated. In general terms: ITC needs no label: the signal is the heat of the interaction.

In assay [2] the target is T1, E6AP AZUL (amino-terminal zinc-binding …). Description: ITC; Y326 phosphorylated.
For assay [3] the target is unchanged. Briefly: SPR.
Assay [4] has the same target. Briefly: ITC.
Assay [5] has the same target. Description: ITC.

Among the data in paper PMC7064531 (2020) are Kd and koff values, retold here.

Where no end group is shown, it is not given here. [ ]: non-standard residue; d: D form. pY = N[C@@H](Cc1ccc(OP(=O)(O)O)cc1)C(=O)O

In general, Kd refers to the constant that tells how readily two partners part at equilibrium. A high value points to lower affinity. What is called koff is the rate constant with which the complex falls apart. A high value points to fast dissociation.

Turning to EEDD[pY]DVMQDPEFLQSVLENLPGVDPNNEAIRNAMGSLASQATKD (not fully specified) [hRpn10^322–366 peptide with Y326 phosphorylated], the Kd in assay [1] and in assay [2] was 189 nM throughout.

B1: GST-hRpn10^305–377 (domain or fragment)
chain: SADIDASSAMDTSEPAKEEDDYDVMQDPEFLQSVLENLPGVDPNNEAIRNAMGSLASQATKDGKKDKKEEDKK
In the case of B1, the koff in assay [3] worked out at 0.0211 s⁻¹. With EEDDYDVMQDPEFLQSVLENLPGVDPNNEAIRNAMGSLASQATKD [hRpn10^322–366 peptide], the Kd in assay [4] and in assay [5] was 18.2 nM throughout.
